One may read the EC50 as the concentration giving half of the maximal effect. Low values mean greater potency, high ones weaker potency.

Series [1] in a line: Detection of test substance in rat plasma by LC-MS/MS (Test Example 3). The class given is in vivo. To be noted: rat plasma, 100 nmol/kg i.v., LC-MS/MS; time at which the test substance was finally detected. The method, then:
Before the administration and 15, 30, 60, 90, 120, 180, and 240 minutes after the administration, blood was sampled (200 μL/sampling) over time from the jugular vein. The blood samples were immediately left on ice.
The collected blood samples were centrifuged at 5000 rpm at 4° C. for 5 minutes by use of a centrifuge (Sigma 4K15, rotor: Nr12130-H). The separated plasma samples were divided into two types (samples for PK measurement and for cGMP measurement) and stored at −80° C. until measurement.
An internal standard (20 μL (500 nM) of a stable isotope of hANP) and an acetic acid mixed solvent (AcOH/distilled water/DMSO=5/3/2, v/v/v) were added to 50 μL of each rat plasma sample prepared in (1) and then mixed therewith. The mixture was transferred to Amicon Ultra-0.5 50K (Millipore Corp., MA) and centrifuged at 14000 rpm at 15° C. for 30 minutes. The obtained filtrate was transferred to Amicon Ultra-0.5 3K (Millipore Corp., MA) and centrifuged again under the aforementioned conditions. The solution remaining on the filter was recovered and transferred to a 96-well deep well plate. The content of the test substance was measured by LC-MS/MS (LC: Shimadzu LC-10ADVP (Shimadzu Corp.), MS/MS: API 4000 QTrap (AB SCIEX)) to calculate the concentration in plasma. The time at which the test substance was finally detected is shown in the rightmost column of Table 2.

Series [2] deals with T1, human GC-A (Homo sapiens, UniProt P16066).
T1 construct: expressed in transfected cells; host or cells: CHO cells
T1 sequence (P16066 33-1061): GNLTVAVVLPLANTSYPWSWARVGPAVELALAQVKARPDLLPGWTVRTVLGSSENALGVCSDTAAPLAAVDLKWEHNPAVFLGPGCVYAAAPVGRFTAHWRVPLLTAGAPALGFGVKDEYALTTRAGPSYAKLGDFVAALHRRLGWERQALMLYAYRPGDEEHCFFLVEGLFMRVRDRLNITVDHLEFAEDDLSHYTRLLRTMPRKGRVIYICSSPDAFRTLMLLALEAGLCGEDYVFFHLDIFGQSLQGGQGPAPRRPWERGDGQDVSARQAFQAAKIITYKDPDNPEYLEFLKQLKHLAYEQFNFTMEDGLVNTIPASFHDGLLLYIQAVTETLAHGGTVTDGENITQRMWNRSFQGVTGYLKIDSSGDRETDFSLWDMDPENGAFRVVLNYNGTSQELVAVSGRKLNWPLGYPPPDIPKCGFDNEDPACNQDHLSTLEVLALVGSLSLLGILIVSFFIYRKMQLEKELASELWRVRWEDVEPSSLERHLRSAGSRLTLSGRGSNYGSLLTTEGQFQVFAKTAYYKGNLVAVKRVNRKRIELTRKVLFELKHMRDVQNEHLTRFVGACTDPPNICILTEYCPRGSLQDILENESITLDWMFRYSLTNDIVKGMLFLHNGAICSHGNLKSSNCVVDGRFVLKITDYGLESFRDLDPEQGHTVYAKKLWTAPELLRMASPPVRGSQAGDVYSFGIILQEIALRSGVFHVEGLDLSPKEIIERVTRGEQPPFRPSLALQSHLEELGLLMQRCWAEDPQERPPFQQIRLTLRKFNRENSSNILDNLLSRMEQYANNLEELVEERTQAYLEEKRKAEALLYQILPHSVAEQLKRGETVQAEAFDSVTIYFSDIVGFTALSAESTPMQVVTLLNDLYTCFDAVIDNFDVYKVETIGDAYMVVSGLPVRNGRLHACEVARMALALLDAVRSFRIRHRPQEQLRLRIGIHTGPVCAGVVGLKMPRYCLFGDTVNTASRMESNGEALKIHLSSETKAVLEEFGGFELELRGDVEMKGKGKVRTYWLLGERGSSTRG
Put plainly: cGMP elevating activity in CHO/human GC-A cells (Test Example 1). It counts as cell-based. A digest of the protocol: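 cGMP in lysates was read by HTRF after a 15 min peptide exposure of GC-A-expressing CHO cells in a CO2 incubator, following 10 min room-temperature preincubation with 1.6 mM IBMX in KRB. T/C values were normalised between solvent wells (0) and 1 nM ANP wells (1).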

`CC[C@H](C)[C@@H]1NC(=O)[C@H](CCCNC(=N)N)NC(=O)[C@H](CC(=O)O)NC(=O)[C@H](CCSC)NC(=O)[C@H](CCCNC(=N)N)NC(=O)CNC(=O)CNC(=O)[C@H](Cc2ccccc2)NC(=O)[C@@H](NC(=O)[C@H](CO)NC(=O)[C@H](CO)NC(=O)[C@H](CCCNC(=N)N)NC(=O)[C@H](CCCNC(=N)N)NC(=O)[C@H](CC(C)C)NC(=O)[C@H](CO)NC(=O)[C@@H](N)CC(=O)N[C@@H]2O[C@H](CO)[C@@H](O[C@@H]3O[C@H](CO)[C@@H](O[C@@H]4O[C@H](CO[C@H]5O[C@H](CO)[C@@H](O)[C@H](O)[C@@H]5O[C@@H]5O[C@H](CO)[C@@H](O[C@@H]6O[C@H](CO[C@]7(C(=O)O)C[C@H](O)[C@@H](NC(C)=O)[C@H]([C@H](O)[C@H](O)CO)O7)[C@H](O)[C@H](O)[C@H]6O)[C@H](O)[C@H]5NC(C)=O)[C@@H](O)[C@H](O[C@H]5O[C@H](CO)[C@@H](O)[C@H](O)[C@@H]5O[C@@H]5O[C@H](CO)[C@@H](O[C@@H]6O[C@H](CO[C@]7(C(=O)O)C[C@H](O)[C@@H](NC(C)=O)[C@H]([C@H](O)[C@H](O)CO)O7)[C@H](O)[C@H](O)[C@H]6O)[C@H](O)[C@H]5NC(C)=O)[C@@H]4O)[C@H](O)[C@H]3NC(C)=O)[C@H](O)[C@H]2NC(C)=O)CSSC[C@@H](C(=O)N[C@@H](CC(N)=O)C(=O)N[C@@H](CO)C(=O)N[C@@H](Cc2ccccc2)C(=O)N[C@@H](CCCNC(=N)N)C(=O)N[C@@H](Cc2ccc(O)cc2)C(=O)O)NC(=O)CNC(=O)[C@H](CC(C)C)NC(=O)CNC(=O)[C@H](CO)NC(=O)[C@H](CCC(N)=O)NC(=O)[C@H](C)NC(=O)CNC1=O` [Compound 2-3, (SG-)Asn-hANP(1-28)]: the “Maximum time of detection after administration” value (from here on “Maximum time of detection”) in series [1] was 2 h. This compound also had an EC50 in series [2] of 120 pM.

For the compound `CC[C@H](C)[C@@H]1NC(=O)[C@H](CCCNC(=N)N)NC(=O)[C@H](CC(=O)O)NC(=O)[C@H](CCSC)NC(=O)[C@H](CCCNC(=N)N)NC(=O)CNC(=O)CNC(=O)[C@H](Cc2ccccc2)NC(=O)[C@@H](NC(=O)[C@H](CO)NC(=O)[C@H](CO)NC(=O)[C@H](CCCNC(=N)N)NC(=O)[C@H](CCCNC(=N)N)NC(=O)[C@H](CC(C)C)NC(=O)[C@H](CO)NC(=O)CCOCCOCCOCCOCCNC(=O)[C@H](CC(=O)N[C@@H]2O[C@H](CO)[C@@H](O[C@@H]3O[C@H](CO)[C@@H](O[C@@H]4O[C@H](CO[C@H]5O[C@H](CO)[C@@H](O)[C@H](O)[C@@H]5O[C@@H]5O[C@H](CO)[C@@H](O[C@@H]6O[C@H](CO[C@]7(C(=O)O)C[C@H](O)[C@@H](NC(C)=O)[C@H]([C@H](O)[C@H](O)CO)O7)[C@H](O)[C@H](O)[C@H]6O)[C@H](O)[C@H]5NC(C)=O)[C@@H](O)[C@H](O[C@H]5O[C@H](CO)[C@@H](O)[C@H](O)[C@@H]5O[C@@H]5O[C@H](CO)[C@@H](O[C@@H]6O[C@H](CO[C@]7(C(=O)O)C[C@H](O)[C@@H](NC(C)=O)[C@H]([C@H](O)[C@H](O)CO)O7)[C@H](O)[C@H](O)[C@H]6O)[C@H](O)[C@H]5NC(C)=O)[C@@H]4O)[C@H](O)[C@H]3NC(C)=O)[C@H](O)[C@H]2NC(C)=O)NC(=O)CO[C@@H]2O[C@H](CO)[C@@H](O[C@@H]3O[C@H](CO)[C@@H](O[C@@H]4O[C@H](CO[C@H]5O[C@H](CO)[C@@H](O)[C@H](O)[C@@H]5O[C@@H]5O[C@H](CO)[C@@H](O[C@@H]6O[C@H](CO[C@]7(C(=O)O)C[C@H](O)[C@@H](NC(C)=O)[C@H]([C@H](O)[C@H](O)CO)O7)[C@H](O)[C@H](O)[C@H]6O)[C@H](O)[C@H]5NC(C)=O)[C@@H](O)[C@H](O[C@H]5O[C@H](CO)[C@@H](O)[C@H](O)[C@@H]5O[C@@H]5O[C@H](CO)[C@@H](O[C@@H]6O[C@H](CO[C@]7(C(=O)O)C[C@H](O)[C@@H](NC(C)=O)[C@H]([C@H](O)[C@H](O)CO)O7)[C@H](O)[C@H](O)[C@H]6O)[C@H](O)[C@H]5NC(C)=O)[C@@H]4O)[C@H](O)[C@H]3NC(C)=O)[C@H](O)[C@H]2NC(C)=O)CSSC[C@@H](C(=O)N[C@@H](CC(N)=O)C(=O)N[C@@H](CO)C(=O)N[C@@H](Cc2ccccc2)C(=O)N[C@@H](CCCNC(=N)N)C(=O)N[C@@H](Cc2ccc(O)cc2)C(=O)O)NC(=O)CNC(=O)[C@H](CC(C)C)NC(=O)CNC(=O)[C@H](CO)NC(=O)[C@H](CCC(N)=O)NC(=O)[C@H](C)NC(=O)CNC1=O` [Compound 2-13, SG-(SG-)Asn-PEG(3)-hANP(1-28)], in series [1], the “Maximum time of detection” value was determined as 3 h. Further, in series [2], the EC50 was 340 pM.

As to `CC[C@H](C)[C@@H]1NC(=O)[C@H](CCCNC(=N)N)NC(=O)[C@H](CC(=O)O)NC(=O)[C@H](CCSC)NC(=O)[C@H](CCCNC(=N)N)NC(=O)CNC(=O)CNC(=O)[C@H](Cc2ccccc2)NC(=O)[C@@H](NC(=O)[C@H](CO)NC(=O)[C@H](CO)NC(=O)[C@H](CCCNC(=N)N)NC(=O)[C@H](CCCNC(=N)N)NC(=O)[C@H](CC(C)C)NC(=O)[C@H](CO)NC(=O)CNC(=O)[C@H](CCCCNC(=O)CO[C@@H]2O[C@H](CO)[C@@H](O[C@@H]3O[C@H](CO)[C@@H](O[C@@H]4O[C@H](CO[C@H]5O[C@H](CO)[C@@H](O)[C@H](O)[C@@H]5O[C@@H]5O[C@H](CO)[C@@H](O[C@@H]6O[C@H](CO[C@]7(C(=O)O)C[C@H](O)[C@@H](NC(C)=O)[C@H]([C@H](O)[C@H](O)CO)O7)[C@H](O)[C@H](O)[C@H]6O)[C@H](O)[C@H]5NC(C)=O)[C@@H](O)[C@H](O[C@H]5O[C@H](CO)[C@@H](O)[C@H](O)[C@@H]5O[C@@H]5O[C@H](CO)[C@@H](O[C@@H]6O[C@H](CO[C@]7(C(=O)O)C[C@H](O)[C@@H](NC(C)=O)[C@H]([C@H](O)[C@H](O)CO)O7)[C@H](O)[C@H](O)[C@H]6O)[C@H](O)[C@H]5NC(C)=O)[C@@H]4O)[C@H](O)[C@H]3NC(C)=O)[C@H](O)[C@H]2NC(C)=O)NC(=O)CO[C@@H]2O[C@H](CO)[C@@H](O[C@@H]3O[C@H](CO)[C@@H](O[C@@H]4O[C@H](CO[C@H]5O[C@H](CO)[C@@H](O)[C@H](O)[C@@H]5O[C@@H]5O[C@H](CO)[C@@H](O[C@@H]6O[C@H](CO[C@]7(C(=O)O)C[C@H](O)[C@@H](NC(C)=O)[C@H]([C@H](O)[C@H](O)CO)O7)[C@H](O)[C@H](O)[C@H]6O)[C@H](O)[C@H]5NC(C)=O)[C@@H](O)[C@H](O[C@H]5O[C@H](CO)[C@@H](O)[C@H](O)[C@@H]5O[C@@H]5O[C@H](CO)[C@@H](O[C@@H]6O[C@H](CO[C@]7(C(=O)O)C[C@H](O)[C@@H](NC(C)=O)[C@H]([C@H](O)[C@H](O)CO)O7)[C@H](O)[C@H](O)[C@H]6O)[C@H](O)[C@H]5NC(C)=O)[C@@H]4O)[C@H](O)[C@H]3NC(C)=O)[C@H](O)[C@H]2NC(C)=O)CSSC[C@@H](C(=O)N[C@@H](CC(N)=O)C(=O)N[C@@H](CO)C(=O)N[C@@H](Cc2ccccc2)C(=O)N[C@@H](CCCNC(=N)N)C(=O)N[C@@H](Cc2ccc(O)cc2)C(=O)O)NC(=O)CNC(=O)[C@H](CC(C)C)NC(=O)CNC(=O)[C@H](CO)NC(=O)[C@H](CCC(N)=O)NC(=O)[C@H](C)NC(=O)CNC1=O` [Compound 2-14, SG-(SG-)Lys-Gly-hANP(1-28)], the “Maximum time of detection” value in series [1] amounted to 1.5 h. A half-maximal response in series [2] (EC50) required 600 pM.
